According to PMC10703879, “Antigen-induced chimeric antigen receptor multimerization amplifies on-tumor cytotoxicity” (Signal Transduction and Targeted Therapy, 2023):

B1: Nb1 (anti-BCMA nanobody 1 of the cilta-cel CAR) (VHH)
VHH: QVKLEESGGGLVQAGRSLRLSCAASEHTFSSHVMGWFRQAPGKERESVAVIGWRDISTSYADSVKGRFTISRDNAKKTLYLQMNSLKPEDTAVYYCAARRIDAADFDSWGQGTQVTVSS
notes: VHH from a phage display library of llamas immunized with BCMA; calculated Mw 13.9 kDa; source: provided by GenScript
B2: Nb2 (anti-BCMA nanobody 2 of the cilta-cel CAR) (VHH)
VHH: EVQLVESGGGLVQAGGSLRLSCAASGRTFTMGWFRQAPGKEREFVAAISLSPTLAYYAESVKGRFTISRDNAKNTVVLQMNSLKPEDTALYYCAADRKSVMSIRPDYWGQGTQVTVSS
notes: VHH from a phage display library of llamas immunized with BCMA; calculated Mw 13.6 kDa; source: provided by GenScript

Assays:
Details in all cases: both partners purified
[1] = molecular target: T1, BCMAECD (synthesized extracellular domain of human B-cell maturation antigen, residues 1-54) (human, UniProt Q02223-1); assay: SEC; nanobody-BCMAECD complexes (mixed 1:4, overnight at 4 °C, Superdex 75)
T1 construct: B-cell maturation antigen (BCMA), human, extracellular domain, residues 1-54 of UniProt Q02223-1; synthesized, without glycosylation; calculated Mw 5.9 kDa; also called BCMA extracellular domain; BCMA ectodomain; source: synthetic peptide (GL Biochem, Shanghai)

[2] = molecular target: T1, BCMAECD (synthesized extracellular …); assay: AUC; sedimentation velocity; complexes formed by mixing nanobody with excess BCMAECD (molar ratio 1:4, overnight at 4 °C); 1 mg/ml, 45,000 rpm, 20 mM Tris pH 8.0, 100 mM NaCl, 4 °C
[3] = molecular target: T2, BCMAECD-Fc (dimerized, Fc-tagged human BCMA extracellular domain) (human, UniProt Q02223-1); assay: SPR; Biacore 8K, 25 °C, 10 mM HEPES pH 7.4, 150 mM NaCl, 0.05% Tween 20; BCMAECD-Fc immobilised by amine coupling on CM5; nanobodies as analytes (five two-fold dilutions); Langmuir model for Nb1 and Nb2, heterogeneous ligand model for NbT
T2 construct: B-cell maturation antigen (BCMA), human, extracellular domain; also called Fc-tagged human BCMAECD

[4] = molecular target: T3, BCMAECD-His (monomeric, His-tagged human BCMA extracellular domain) (Homo sapiens, UniProt Q02223-1); assay: SPR; Biacore 8K, 25 °C, 10 mM HEPES pH 7.4, 150 mM NaCl, 0.05% Tween 20; BCMAECD-His immobilised by amine coupling on CM5; nanobodies as analytes (five two-fold dilutions); Langmuir model for Nb1 and Nb2, heterogeneous ligand model for NbT
T3 construct: B-cell maturation antigen (BCMA), human, extracellular domain; also called His-tagged human BCMAECD
T3 sequence (Q02223 1-54): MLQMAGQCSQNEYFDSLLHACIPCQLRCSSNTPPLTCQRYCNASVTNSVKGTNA

T1 sequence (Q02223 1-54): as above
T2 sequence (Q02223 1-54): as above

Row | Binder | stoichiometry N [1] | stoichiometry N [2] | Kd [3] [nM] | Kd [4] [nM]
1 | B1 | ~1 Nb1 per BCMAECD (printed 2:2) | 1 Nb1 per BCMAECD (printed 2:2) | 0.67 | 3.9
2 | B2 | ~1 Nb2 per BCMAECD (printed 1:1) | 1 Nb2 per BCMAECD (printed 1:1) | 3.7 | 4.2
